Experiments:
[1] = target: T1, full length mouse PD-1 expressed on 293F-mouse PD-1 cells (mouse, UniProt Q02242 25-288); assay: cell-based binding FACS on 293F-mouse PD-1 cells (MFI); unit from the axis 'Con of mAb, nM.'
T1 construct: also called cell surface mouse PD-1
T1 sequence: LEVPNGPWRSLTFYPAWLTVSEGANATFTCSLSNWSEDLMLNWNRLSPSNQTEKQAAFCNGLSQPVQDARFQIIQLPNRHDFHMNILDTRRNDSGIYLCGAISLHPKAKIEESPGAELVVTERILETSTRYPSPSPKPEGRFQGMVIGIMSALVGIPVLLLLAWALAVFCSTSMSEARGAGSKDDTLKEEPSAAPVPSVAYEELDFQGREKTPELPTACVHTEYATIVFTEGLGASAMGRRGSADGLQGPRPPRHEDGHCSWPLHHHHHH
Procedure: The binding activities of the mouse anti-PD-1 antibodies to mouse PD-1s expressed on cell surface were tested by flow cytometry (FACS), using Biosion in-house prepared 293F-mouse PD-1 cells expressing full length mouse PD-1 (SEQ ID NO.: 27) on cell membrane. The 293F-mouse PD-1 cells were prepared by transfecting 293F cells with a PCMV-T-P plasmid inserted with mouse PD-1 coding sequence between EcoR I and XbaI sites, following the instruction of lipofectamine 3000 transfection reagent (Thermo Fisher).
In specific, the 293F-mouse PD-1 cells and GS-J2/PD-1 cells were respectively harvested from cell culture flasks, washed twice and re-suspended in PBS containing 2% v/v Fetal Bovine Serum (FACS buffer). Then, 2×10⁵ cells per well were incubated in 96 well-plates with 100 μl of the anti-PD1 antibodies or controls at various concentrations for 40 minutes on ice. […] Following an incubation of 40 minutes at 4° C. in dark, cells were washed three times and re-suspended in FACS buffer. Fluorescence was measured using a Becton Dickinson FACS Canto II-HTS equipment and plotted against antibody concentrations. Data was analyzed using GraphPad Prism software and EC₅₀ values were reported.

[2] = target: T1, full length mouse PD-1 expressed on …; assay: cell-based blocking FACS: 293F-mouse PD-1 cells incubated with antibody, then with mouse PD-L1-hFc (blocked ligand), detected with anti-human IgG Fc-PE; unit from the axis 'Con of mAb, nM.'
Procedure: Briefly, 293F-mouse PD-1 cells were harvested from cell culture flasks, washed twice and re-suspended in PBS containing 2% v/v Fetal Bovine Serum (FACS buffer). Then, 1×10⁵ cells per well in 96 well-plates were incubated in 100 μL of the anti-PD-1 antibodies or controls at various concentrations (starting at 80 nM with a 3-fold serial dilution) in FACS buffer for 40 minutes at 4° C. […] The plates were washed twice with FACS buffer, and then added and incubated for 40 minutes at 4° C. in dark with 100 μl/well R-Phycoerythrin AffiniPure Goat Anti-Human IgG, Fcγ fragment specific (1:1000 dilution in FACS buffer, Cat#:109-115-098, Jackson Immunoresearch). Cells were washed twice and re-suspended in FACS buffer. Fluorescence was measured using a Becton Dickinson FACS Canto II-HTS equipment. Data was analyzed using Graphpad Prism software and IC₅₀ values were reported.

[3] = target: T2, recombinant mouse PD-1-his protein (Cat#:50124-M08H, Sino Biological Inc) (mouse, UniProt Q02242 25-167); assay: SPR (Biacore T200), antibody captured, PD-1-his in flow, 1:1 fit
T2 construct: Bought protein used in Biacore and indirect ELISA; not shown: his tag
T2 sequence (looked up): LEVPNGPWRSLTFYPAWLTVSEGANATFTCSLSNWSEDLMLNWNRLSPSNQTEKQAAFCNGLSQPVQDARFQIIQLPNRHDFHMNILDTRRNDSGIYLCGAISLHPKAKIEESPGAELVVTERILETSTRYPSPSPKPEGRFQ
Description: The purified anti-PD-1 mouse monoclonal antibodies (mAbs) generated in Example 1 were characterized for binding affinities and binding kinetics by Biacore T200 system (GE healthcare, Pittsburgh, Pa., USA).
Briefly, Goat-Anti-Mouse IgG (Cat#: BR100838, GE healthcare, Mouse Antibody Capture Kit) was covalently linked to a CMS chip (carboxy methyl dextran coated chip, Cat#: BR100530, GE healthcare) via primary amines using a standard amine coupling kit (GE healthcare, Pittsburgh, Pa., USA) provided by Biacore. Un-reacted moieties on the biosensor surface were blocked with ethanolamine. A Protein G chip (Cat#:29-1793-15, GE healthcare) was used for the positive controls affinity determination. The anti-PD-1 antibodies of the disclosure and the two positive controls at the concentration of 2 μg/ml were respectively flowed onto the chip at a flow rate of 10 μl/min. Then, serially diluted recombinant human PD-1-his protein (Cat#:10377-H08H, Sino biological Inc.), cynomolgus PD-1-his protein (Cat#:PD1-05223, Acro biosystems Inc.) and recombinant mouse PD-1-his protein (Cat#:50124-M08H, Sino Biological Inc), 2-fold dilution in HBS-EP⁺ buffer (provided by Biacore) starting at 200 nM, were respecitvely flowed onto the chip at a flow rate of 30 μl/min. The antigen-antibody association kinetics was followed for 2 minutes and the dissociation kinetics was followed for 10 minutes. The association and dissociation curves were fit to a 1:1 Langmuir binding model using Biacore evaluation software.

[4] = target: T2, recombinant mouse PD-1-his protein …; assay: indirect ELISA on coated mouse PD-1-his; unit from the axis 'Con of mAb, nM.'
Procedure: Briefly, 96-well micro plates were coated with 100 μl 2 μg/ml mouse PD-1-his (Cat#:50124-M08H, Sino Biological Inc) or 2 μg,/ml cynomolgus PD-1-his (Cat#:PD1-05223, Acro biosystems Inc.) in carbonate/bicarbonate buffer (pH 9.6) for 2 hours at 37° C. Plates were washed once with wash buffer (PBST, PBS+0.05% Tween-20) and then blocked with 200 μl blocking buffer (5% w/v non-fatty milk in PBST) for 2 hours at 37° C. […] ELISA plates were washed 4 times and incubated with Peroxidase AffiniPure goat anti-mouse IgG, Fcγ Fragment Specific (1:5000 dilution in PBST buffer, Cat#:115-035-071, Jackson ImmunoResearch Laboratories, Inc., 100 μl/well) or Peroxidase AffiniPure F(ab′)₂ Fragment Goat Anti-Human IgG, Fcγ fragment specific (Cat#:109-036-098, Jackson ImmunoResearch, for the controls) for 40 minutes at 37° C. After a final wash, plates were incubated with 100 μl/well TMB (Cat#:TMB-S-002, innoreagents) at room temperature. The reaction was stopped 3-10 minutes later with 50 μl/well 1M H₂SO₄, and the absorbance was read on a microplate reader using dual wavelength mode with 450 nm for TMB and 630 nm as the reference wavelength. Then the OD (450-630) values were plotted against antibody concentrations. Data was analyzed using GraphPad Prism software and EC₅₀ values were reported.

Binder | EC50 [1] | IC50 [2] | Kd [3] | koff [3] | kon [3] | EC50 [4]
mouse anti-PD-1 monoclonal antibody E1A9C8A7 (antibody, V domains shown, Hybridoma-derived mouse mAb purified on Protein A; also called Mouse E1A9C8A7) VH: QVQLQQSGAEVVRPGVSVRISCKGSGYTFSDYVMHWMKQSHGESLEWIGVISTYHIPAVYNQKFKGKATMTVDKSSSTVYLELARLTSEDSAIYYCAREVYGDSYYFDVWGAGTTVTVSS VL: DVLMTQIPLSLPVSLGDQVSISCRSSQSIVHSNGNTYLEWYLQKPGQSPKLLIYKVSNRFSGVPDRFSGSGSGTDFTLKISRVEAEDLGVYYCFQGSHVPYTFGGGTKLEIK | 1.27 nM | 6.86 nM | 150 nM | 0.031 s⁻¹ | 207000 M⁻¹ s⁻¹ | 0.185 nM
mouse anti-PD-1 monoclonal antibody E2G4E10B7 (antibody, V domains shown, Hybridoma-derived mouse mAb; also called Mouse E2G4E10B7) VH: QVQLQQSGAELVRPGVSVKISCKGSGYTFTDYVMHWVRQSHAKSLEWIGVISTHFGDGVYNQKFKGKATMTVDKSSSTAYMELARLTSEDSAIYYCAREVYGDSWYFDVWGAGTTVTVSS VL: DVLMTQTPLSLPVSLGDQASISCRSSQSLVHSDGNTYLEWYLQKPGQSPKLLIYKVSNRFSGVPDRFSGSGSGTDFTLKISRLEAEDLGVYYCFQGSHVPYTFGGGTKLEIK | 0.87 nM | 2.49 nM | 29.8 nM | 0.00553 s⁻¹ | 186000 M⁻¹ s⁻¹ | 0.34 nM

— patent publication US20230331848A1 (BIOSION, published 2023)
